These proteins were tested on O=C(O)/C=C/c1ccccc1 (assay: cells, lysate or membranes). Conditions: 1 mM NADPH, 50 mM phosphate pH 7.6, 25°C, co-expressed LjCPR1.

Row | Protein | Km
1 | GmC4H14 (Glycine max) (protein) MDLLLLEKTLIGLFLAAVVAIAVSTLRGRKFKLPPGPLPVPIFGNWLQVGDDLNHRNLTDLAKKFGDIFLLRMGQRNLVVVSSPELAKEVLHTQGVEFGSRTRNVVFDIFTGKGQDMVFTVYGEHWRKMRRIMTVPFFTNKVVQQYRHGWESEAAAVVEDVKNNPDAAVSGTVIRRRLQLMMYNNMYRIMFDRRFESEEDPIFQRLRALNGERSRLAQSFEYNYGDFIPILRPFLKGYLKICKEVKETRLKLFKDYFVDERKKLGSIKSSNNNELKCAIDHILDAQRKGEINEDNVLYIVENINVAAIETTLWSIEWGIAELVNHPEIQQKVRDEIDRVLEAGHQVTEPDIQKLPYLQAVVKETLRLRMAIPLLVPHMNLHDAKLGGYDIPAESKILVNAWWLANNPAHWKKPEEFRPERFLEEELHVEANGNDFRYLPFGVGRRSCPGIILALPILAITLGRLVQNFELLPPPGQSQIDTSEKGGQFSLHILKHSTIVAKPRSF | 2.74 ± 0.18 µM
2 | GmC4H20 (Glycine max) (protein) MGLQIKEPLLFTLVTISLISITKLLHSYFSIPFSPSNLSIAIATLIFVLISYKFSSSSIKHSSTTLPPGPLSVPIFGNWLQVGNDLNHRLLASMSQTYGPVFLLKLGSKNLVVVSDPELATQVLHAQGVEFGSRPRNVVFDIFTGNGQDMVFTVYGDHWRKMRRIMTLPFFTNKVVHNYSNMWEEEMDLVVRDLNVNERVRSEGIVIRRRLQLMLYNIMYRMMFDAKFESQEDPLFIQATRFNSERSRLAQSFEYNYGDFIPLLRPFLRGYLNKCKDLQSRRLAFFNTHYVEKRRQIMAANGEKHKISCAMDHIIDAQMKGEISEENVIYIVENINVAAIETTLWSIEWAVAELVNHPTVQSKIRDEISKVLKGEPVTESNLHELPYLQATVKETLRLHTPIPLLVPHMNLEEAKLGGHTVPKESKVVVNAWWLANNPSWWKNPEEFRPERFLEEECATDAVAGGKVDFRFVPFGVGRRSCPGIILALPILGLVIAKLVKSFQMSAPAGTKIDVSEKGGQFSLHIANHSTVLFHPIKTL | 3.83 ± 0.44 µM
3 | GmC4H2 (Glycine max) (protein) MDLLLLEKTLIGLFLAAVVAIAVSTLRGRKFKLPPGPLPVPIFGNWLQVGDDLNHRNLTDLAKKFGDIFLLRMGQRNLVVVSSPELAKEVLHTQGVEFGSRTRNVVFDIFTGKGQDMVFTVYGEHWRKMRRIMTVPFFTNKVVQQYRHGWESEAAAVVEDVKKNPDAAVSGTVIRRRLQLMMYNNMYRIMFDRRFESEEDPIFQRLRALNGERSRLAQSFEYNYGDFIPILRPFLKGYLKICKEVKETRLKLFKDYFVDERKKLGSTKSTNNNNELKCAIDHILDAQRKGEINEDNVLYIVENINVAAIETTLWSIEWGIAELVNHPEIQQKLRDEIDRVLGAGHQVTEPDIQKLPYLQAVVKETLRLRMAIPLLVPHMNLHDAKLGGYDIPAESKILVNAWWLANNPAHWKKPEEFRPERFFEEESLVEANGNDFRYLPFGVGRRSCPGIILALPILGITLGRLVQNFELLPPPGQSQIDTSEKGGQFSLHILKHSTIVAKPRSF | 6.438 ± 0.74 µM

From publication PMC10184913
